Measurements: patent publication US20260274955A1 (JANUX THERAPEUTICS, published 2026)

Assays:
[1] = molecular target: Anti-CD28 Fab (SEQ ID NOs: 202, 203); assay: phage binding ELISA on captured Fab;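 also: clonal phage supernatants added briefly to wells pre-incubated with CD28 antigen or with blocking buffer only, then washed, bound phage read by ELISA using HRP-coupled anti-M13 antibody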
Protocol: (§1) Clonal phage were harvested as crude supernatants and screened via standard ELISAs. […] Prior to the addition of clonal phage, wells were incubated with blocking buffer and CD28 antigen or blocking buffer alone. Without washing or aspirating, clonal phage supernatants were then added to the wells and incubated for a short time. Wells were then washed followed by detection of bound phage using a horse radish conjugated anti-M13 antibody.

[2] = molecular target: Anti-CD28 Fab (SEQ ID NOs: 202, 203); assay: phage binding ELISA on captured Fab; competitor CD28 antigen;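 as to Anti-CD28 Fab signal in the presence of CD28: wells pretreated with CD28 antigen in blocking buffer or buffer only, then clonal phage supernatants added briefly without washing, bound phage detected via horseradish-conjugated anti-M13 antibody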
Protocol: as §1

Chain of Anti-CD28 Fab (SEQ ID NOs: 202, 203) (VH, as listed by the source, chain 1 of 2): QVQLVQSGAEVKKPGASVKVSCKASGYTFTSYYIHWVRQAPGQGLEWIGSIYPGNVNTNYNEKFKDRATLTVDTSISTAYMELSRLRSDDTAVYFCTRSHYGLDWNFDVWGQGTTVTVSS
Chain of Anti-CD28 Fab (SEQ ID NOs: 202, 203) (VL, as listed by the source, chain 2 of 2): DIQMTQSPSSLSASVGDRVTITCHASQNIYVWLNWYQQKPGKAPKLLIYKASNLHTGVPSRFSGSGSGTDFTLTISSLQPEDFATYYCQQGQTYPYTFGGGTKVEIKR

Row | Binder | Anti-CD28 Fab signal [1] | Anti-CD28 Fab signal in the presence of CD28 [2]
1 | YCEGHSQEYLWKCL [Phage-36] | 2.36 | 0.07
2 | YCEGHSSEYIQKCL [Phage-37] | 2.25 | 0.1
3 | HCSGHHWLQVWKCF [Phage-38] | 2.31 | 0.07
4 | YCEGHSQENIWKCL [Phage-32] | 1.41 | 0.07
5 | YCEGHAPEYIRKCL [Phage-30] | 1.63 | 0.08
6 | YCEGHLPEYREKCL [Phage-34] | 1.96 | 0.07
7 | YCEGHAPEYIWKCL [Phage-31] | 1.63 | 0.07
8 | YCDGHLPQYMAQCL [Phage-59] | 2.4 | 0.2
9 | YCDGHLPEYQEKCL [Phage-71] | 2.37 | 0.1
10 | YCEGHAPEYMLKCL [Phage-146] | 2.21 | 0.07
11 | YCDGHAPEYMMKCL [Phage-61] | 2.39 | 0.09
12 | YCEGHAPEYMAKCL [Phage-46] | 2.47 | 0.08
13 | YCEGHLPEYIQKCL [Phage-42] | 1.9 | 0.08
14 | YCEGHSPQYMWKCL [Phage-142] | 2.22 | 0.12
15 | YCEGHLPEYIWKCL [Phage-43] | 2.32 | 0.09
16 | YCEGHLPEYRNKCL [Phage-40] | 2.38 | 0.17
17 | YCAGHLPQYMAKCL [Phage-55] | 2.41 | 0.17
18 | YCMGHAPEYMAKCL [Phage-68] | 2.38 | 0.09
19 | YCEGHAAEYMTKCL [Phage-143] | 2.22 | 0.08
20 | YCDGHSPIYMWKCL [Phage-45] | 2.47 | 0.09
21 | YCDGHLDEYMAKCL [Phage-94] | 2.31 | 0.08
22 | YCAGHLPQYMSKCL [Phage-72] | 2.37 | 0.11
23 | YCEGHAPEYIGKCL [Phage-44] | 2.1 | 0.07
24 | YCAGHLPEYMDKCL [Phage-53] | 2.42 | 0.12

Row | Binder | Anti-CD28 Fab signal [1] | Anti-CD28 Fab signal in the presence of CD28 [2]
25 | YCEGHLPLYMWKCL [Phage-96] | 2.3 | 0.07
26 | YCEGHSPEYMSKCL [Phage-89] | 2.31 | 0.07
27 | YCDGHLPIYMAKCL [Phage-100] | 2.3 | 0.14
28 | YCDGHSAEHMAKCL [Phage-54] | 2.41 | 0.08
29 | YCEGHLPEYLGKCL [Phage-33] | 1.23 | 0.08
30 | YCEGHLPEYMWKCL [Phage-62] | 2.39 | 0.08
31 | YCDGHSPEYMWKCL [Phage-49] | 2.44 | 0.09
32 | YCAGHAPEYMEKCL [Phage-48] | 2.45 | 0.09
33 | YCDGHLPEYLAKCL [Phage-64] | 2.38 | 0.11
34 | YCEGHLPEYLAKCL [Phage-35] | 2.34 | 0.1
35 | YCDGHLPEYMSKCM [Phage-66] | 2.38 | 0.14
36 | YCEGHLPEYMAKCL [Phage-57] | 2.41 | 0.14
37 | YCDGHLPQYMEKCL [Phage-47] | 2.47 | 0.11
38 | YCEGHAAEYMAKCL [Phage-63] | 2.38 | 0.08
39 | YCEGHLPQYMKKCL [Phage-144] | 2.22 | 0.1
40 | YCDGHLPEYMNKCL [Phage-52] | 2.43 | 0.13
41 | YCDGHLPIYMSQCL [Phage-73] | 2.36 | 0.12
42 | YCEGHLPQYMWKCL [Phage-51] | 2.44 | 0.17
43 | YCEGHLPEYMFKCL [Phage-58] | 2.4 | 0.12
44 | YCEGHLPQYMQKCL [Phage-60] | 2.39 | 0.12
45 | YCDGHLPEYMEKCL [Phage-50] | 2.44 | 0.1
46 | YCWSHSPPFIKKCY [Phage-39] | 2.06 | 0.06
47 | YCEGHLPEYLEKCV [Phage-41] | 2.11 | 0.06
48 | YCAGHMPEYMAKCL [Phage-65] | 2.38 | 0.11
